Among the data in PMC5216073 are kcat/KM of MC1-stimulated nucleotide exchange (fluorescence GEF assay, rates against CtMC1core concentration) and kcat/KM of MC1-stimulated exchange of MANT-GDP for GTP on Ypt7 (fluorescence GEF assay, 0-2.0 μM CtMC1core, 25 °C) values, retold here.

The target in test [1] is CtYpt7-F33A (Chaetomium thermophilum).
In test [2] the target is CtYpt7 wild type (Chaetomium thermophilum Ypt7) (Chaetomium thermophilum).
The target of test [3] is CtYpt7-K38A (Chaetomium thermophilum).

In the case of “CtMC1core complex (CtMon1 195-355 with CtCcz1 1-249), both expression tags retained, as used in the GEF assay”, the kcat/KM of MC1-stimulated nucleotide exchange (fluorescence GEF assay, rates against CtMC1core concentration) in test [1] worked out at 35000 M⁻¹ s⁻¹; in test [3], 2600 M⁻¹ s⁻¹. Also, in test [2], the kcat/KM of MC1-stimulated exchange of MANT-GDP for GTP on Ypt7 (fluorescence GEF assay, 0-2.0 μM CtMC1core, 25 °C) came out at 23000 M⁻¹ s⁻¹.
